From patent publication US20100041597A1, “PEPTIDES TARGETED TO PROTEIN KINASE C ISOFORMS AND USES THEREOF” (priority 2005, published 2010)

What was measured:
PKC-βI = PKC-βI (Homo sapiens, UniProt P05771); assay: ELISA-based competitive binding assay with purified PKC isoform; design: key to Affinity for PKC isoform βI: —: no detectable affinity; Low to very low affinity at 10X or 20X or both PRE concentrations in at least one cell line in the cell extract assay; Low affinity in purified isoform assay.; Moderate affinity at 10X or 20X or both PRE concentrations in at least one cell line in the cell extract assay.; High affinity at 10X or 20X or both PRE concentrations in at least one cell line in the cell extract assay; High affinity in purified isoform assay; conditions: for inhibition at 50 µM / inhibition at 100 µM / inhibition at 200 µM / calculated binding capacity (100-% n) after subtraction of the DMSO apparent binding capacity: purified PKC-βI; for inhibition at 50 µM / inhibition at 100 µM / inhibition at 200 µM: read-out: calculated binding capacity (100-% n) after subtraction of the DMSO apparent binding capacity; for Affinity for PKC isoform βI: Purified isoform, Table 20; for targeting of PKC-βI: purified isoform, Tables 14-19
Experimental: (§1) Peptides PRE 1, 2, 3, 4, 5, 6, 7, 8, 9, 10, 11, 12 and 13 (see Table 3) were tested for their ability to interfere with binding of PKC isoform-specific antibodies to their target PKC isoforms using a competitive binding assay and purified PKC isoforms.
(§2) Procedure: Competitive binding was assessed using a 96 well plate ELISA-based assay as described below.
(§3) Greiner 96 well ELISA plates were coated with the appropriate PKC isoform diluted in PBSN (PBS with Calcium/Magnesium+0.05% Sodium azide w/w). 50 μL/well at 250 ng/mL was used. Control wells contained PBSN only. Plates were incubated overnight at 4° C.
(§4) The plates were washed 3 times with 200 μL of dH2O per well, then 100 μL of blocking solution was added per well and the plate incubated for 1 h at 37° C. The washing steps with dH2O were repeated and 50 μL of the appropriate PRE solution (PRE stock solution [20 mM in DMSO] diluted in PBSN) was added and the plate incubated for 1 h at room temperature.
(§5) After incubation, 5 μL of 1.1:400 anti-PKC (isoform specific antibody) was added per well (to provide a final concentration of 1:4000). For PKC-epsilon, 1.1:800 dilution was used and for PKC-zeta a 1.1:100 dilution was used due to high and low binding affinity, respectively. The plates were then incubated 1 h at room temperature, followed by washing with dH2O as described above.
(§6) 50 μL of 1:1000 dilution of Alkaline Phosphatase (AP) conjugated antibody (anti-rabbit for all except zeta, which was anti-goat) was then added and the plate incubated for 1 h at room temperature. Washing with dH2O was then repeated. Finally, 100 μL of pNPP solution in pNPP buffer (2 mM MgCl2, 100 mM Sodium bicarbonate in water, pH 9.8) was added to all wells and incubated for 8 minutes for α, βI, βII ε, and ζ, or for 15-20 mins for […] (until sufficient coloration is observed). The reaction was stopped by addition of Stop solution (2N NaOH) and the absorbance at 405 nm was read on a Galaxy Plate reader.
(§7) Controls were PKC without PRE; blank controls, and controls containing the final concentrations of DMSO used for solubilizing the PREs. The non-specific binding capacity related to DMSO was also measured.
(§8) The antibodies used were as follows: anti-PKC α (Cat. No. SC-208); anti-PKC βI (Cat. No. SC-209); anti-PKC βII (Cat. No. SC-210); anti-PKC δ (Cat. No. SC-213); anti-PKC ε (Cat. No. SC-214); anti-PKC ζ (Cat. No. SC-216-G) (all from Santa Cruz Biotechnology, Inc.). The AP-conjugated antibodies were obtained from Jackson Immuno Research Laboratories (West Grove, Pa.).
(§9) Calculations: The OD values measured at 405 nm represent the free PKC coated per well.
(§10) OD405 PKC alone−Blank OD405 of each sample=OD405 coated isoform
(§11) (OD405 of sample X/OD405 coated isoform)×100=% n that represents the percentage of X binding compared to control.
(§12) 100-% n measures the relative binding capacity of X towards the tested isoform.
(§13) The apparent binding capacity of the DMSO samples was then subtracted from X binding capacity.
(§14) All measurements were made in triplicate and the values in the table represent the averaged calculated binding capacity values after subtraction of the DMSO apparent binding capacity (averaged from 12 values, respectively 10.80, 11.20 and 16.40 corresponding to the concentrations of DMSO used to dilute the […] at 200, 100 and 50 μM respectively). The results allow for quantitative comparison of the binding capacity of each PRE towards an individual isoform within each table, but not among isoforms due to differences in sensitivity of the specific antibodies toward the secondary antibody. This applies particularly to PKC-delta. As noted above, the colour development duration was increased 2-3 times and, as a result, the OD405 measurements may be overestimated for this isoform.

PKC-α = PKC-α (Homo sapiens, UniProt P17252); assay: as above; design: key to Affinity for PKC isoform α: —: no detectable affinity; Low to very low affinity at 10X or 20X or both PRE concentrations in at least one cell line in the cell extract assay; Low affinity in purified isoform assay.; Moderate affinity at 10X or 20X or both PRE concentrations in at least one cell line in the cell extract assay.; High affinity at 10X or 20X or both PRE concentrations in at least one cell line in the cell extract assay; High affinity in purified isoform assay; conditions: for inhibition at 50 µM / inhibition at 100 µM / inhibition at 200 µM / calculated binding capacity (100-% n) after subtraction of the DMSO apparent binding capacity: purified PKC-α; for inhibition at 50 µM / inhibition at 100 µM / inhibition at 200 µM: read-out: calculated binding capacity (100-% n) after subtraction of the DMSO apparent binding capacity; for Affinity for PKC isoform α: Purified isoform, Table 20; for targeting of PKC-α: purified isoform, Tables 14-19; for isoform specificity: purified isoforms α, βI, βII, δ, ε, ζ compared
Experimental: as §1, §2, §3, §4, §5, §6, §7, §8, §9, §10, §11, §12, §13, §14

Chain of PKC-βI (P05771 whole entry, canonical isoform): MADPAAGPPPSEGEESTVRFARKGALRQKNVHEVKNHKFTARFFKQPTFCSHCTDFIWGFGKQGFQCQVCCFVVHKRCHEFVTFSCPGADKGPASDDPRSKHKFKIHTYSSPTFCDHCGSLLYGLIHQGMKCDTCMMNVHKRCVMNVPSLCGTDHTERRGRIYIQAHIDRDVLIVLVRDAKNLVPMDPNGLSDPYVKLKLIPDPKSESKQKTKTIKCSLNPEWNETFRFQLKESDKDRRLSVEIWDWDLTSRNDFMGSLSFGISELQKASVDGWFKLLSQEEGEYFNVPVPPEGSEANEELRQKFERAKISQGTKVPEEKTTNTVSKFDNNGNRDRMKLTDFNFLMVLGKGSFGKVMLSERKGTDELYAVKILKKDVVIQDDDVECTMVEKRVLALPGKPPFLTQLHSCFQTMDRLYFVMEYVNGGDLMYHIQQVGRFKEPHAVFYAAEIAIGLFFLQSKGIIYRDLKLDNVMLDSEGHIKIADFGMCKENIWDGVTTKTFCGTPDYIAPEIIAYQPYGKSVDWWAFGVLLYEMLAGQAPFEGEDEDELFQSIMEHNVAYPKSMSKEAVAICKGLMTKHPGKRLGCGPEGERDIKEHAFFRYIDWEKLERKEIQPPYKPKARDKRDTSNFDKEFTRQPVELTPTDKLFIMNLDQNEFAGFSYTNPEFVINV

Ac-AKGIQEVKGGDAQNLIGISI-NH2 [PRE 3]
inhibition at 50 µM (PKC-βI; PRE 50 μM): 26%
inhibition at 100 µM (PKC-βI; PRE 100 μM): 22.5%
inhibition at 200 µM (PKC-βI; PRE 200 μM): 23%
Affinity for PKC isoform βI (PKC-βI): H
targeting of PKC-βI (PKC-βI): targeted most strongly
inhibition at 50 µM (PKC-α; PRE 50 μM): 17.5%
inhibition at 100 µM (PKC-α; PRE 100 μM): 26.5%
inhibition at 200 µM (PKC-α; PRE 200 μM): 22.6%
Affinity for PKC isoform α (PKC-α): H
targeting of PKC-α (PKC-α): targeted most strongly
isoform specificity (PKC-α): “universal” PKC targeting peptide, with the exception of the PKC-βII isoform

Ac-AKGIQEVKGGKDAQNLIGISI-NH2 [PRE 5]
inhibition at 50 µM (PKC-βI; PRE 50 μM): 0%
inhibition at 100 µM (PKC-βI; PRE 100 μM): 0%
inhibition at 200 µM (PKC-βI; PRE 200 μM): 0%
Affinity for PKC isoform βI (PKC-βI): —
inhibition at 50 µM (PKC-α; PRE 50 μM): 0%
inhibition at 100 µM (PKC-α; PRE 100 μM): 0%
inhibition at 200 µM (PKC-α; PRE 200 μM): 0%
Affinity for PKC isoform α (PKC-α): —

Ac-ISIGILNQADK-NH2 [PRE 10]
calculated binding capacity (100-% n) after subtraction of the DMSO apparent binding capacity (PKC-βI; PRE 50 μM): 3.77
calculated binding capacity (100-% n) after subtraction of the DMSO apparent binding capacity (PKC-βI; PRE 100 μM): 4.35
Affinity for PKC isoform βI (PKC-βI): —
Affinity for PKC isoform α (PKC-α): —

Ac-ISIGILQNADK-NH2 [PRE 7]
Affinity for PKC isoform βI (PKC-βI): —
Affinity for PKC isoform α (PKC-α): L

Ac-KDANQLIGISI-NH2 [PRE 6]
Affinity for PKC isoform βI (PKC-βI): L
Affinity for PKC isoform α (PKC-α): —

Ac-KDAQNLI-NH2 [PRE 12]
Affinity for PKC isoform βI (PKC-βI): —
Affinity for PKC isoform α (PKC-α): —

Ac-KDAQNLIGISI-NH2 [PRE 4, Ac-KDAQNLIGISI-NH2]
inhibition at 50 µM (PKC-βI; PRE 50 μM): 6.02%
inhibition at 100 µM (PKC-βI; PRE 100 μM): 15.7%
inhibition at 200 µM (PKC-βI; PRE 200 μM): 7.46%
Affinity for PKC isoform βI (PKC-βI): L
inhibition at 50 µM (PKC-α; PRE 50 μM): 6.46%
inhibition at 100 µM (PKC-α; PRE 100 μM): 21.9%
inhibition at 200 µM (PKC-α; PRE 200 μM): 22.8%
Affinity for PKC isoform α (PKC-α): H
targeting of PKC-α (PKC-α): targeted most strongly
isoform specificity (PKC-α): specificity for PKC-A

Ac-RDAQNLI-NH2 [PRE 13]
Affinity for PKC isoform βI (PKC-βI): —
Affinity for PKC isoform α (PKC-α): —

Ac-RDAQNLIGISI-NH2 [PRE 11]
calculated binding capacity (100-% n) after subtraction of the DMSO apparent binding capacity (PKC-βI; PRE 50 μM): 9.86
calculated binding capacity (100-% n) after subtraction of the DMSO apparent binding capacity (PKC-βI; PRE 100 μM): 14.23
calculated binding capacity (100-% n) after subtraction of the DMSO apparent binding capacity (PKC-βI; PRE 200 μM): 12.5
Affinity for PKC isoform βI (PKC-βI): —
Affinity for PKC isoform α (PKC-α): L

Ac-isigilgnadk-NH2 [PRE 9]
calculated binding capacity (100-% n) after subtraction of the DMSO apparent binding capacity (PKC-βI; PRE 50 μM): 11.53
calculated binding capacity (100-% n) after subtraction of the DMSO apparent binding capacity (PKC-βI; PRE 100 μM): 8.82
calculated binding capacity (100-% n) after subtraction of the DMSO apparent binding capacity (PKC-βI; PRE 200 μM): 5.72
Affinity for PKC isoform βI (PKC-βI): L
calculated binding capacity (100-% n) after subtraction of the DMSO apparent binding capacity (PKC-α; PRE 100 μM): 5.35
Affinity for PKC isoform α (PKC-α): —

ILEDKGGDAQNLIGISI [PRE 8]
Affinity for PKC isoform βI (PKC-βI): —
Affinity for PKC isoform α (PKC-α): —

RRKKGGKDFVVKR [PRE 1]
Affinity for PKC isoform βI (PKC-βI): H
targeting of PKC-βI (PKC-βI): targeted most strongly
calculated binding capacity (100-% n) after subtraction of the DMSO apparent binding capacity (PKC-α; PRE 50 μM): 0.69
calculated binding capacity (100-% n) after subtraction of the DMSO apparent binding capacity (PKC-α; PRE 200 μM): 2.10
Affinity for PKC isoform α (PKC-α): —
